Experimental findings from patent US20090280138A1 (OXFORD BIOMEDICA UK, published 2009) are described below.

In experiment [1] the target is T1, MHC class I molecule HLA-A*0201 (iTopia plate-bound monomer) (biotin (bound to streptavidin-coated plate)).
T1 construct: also called A2
Put plainly: iTopia off-rate assay, 37 C; fit R^2 0.99. The method, then:
(§1) The 9 mers were tested for Peptide Binding, Off Rate and Affinity using iTopia Epitope Discovery System in accordance with the manufacturer's instructions. Briefly, 96 well microtitre plates coated with MHC molecules representing different MHC alleles are used to identify candidate peptides. […] Determinations are performed in duplicate using an ELISA plate reader and included allele specific positive controls.
(§2) A one-phase exponential decay curve, with a plateau given equal to 0, was generated using GraphPad Prism® software, which calculated the t1/2 and goodness-of-fit, as measured by r², for each peptide.

Experiment [2] concerns the target T1, MHC class I molecule HLA-A*0201 (iTopia …). Kind of experiment: iTopia off-rate assay, 37 C; fit R^2 0.92. The method, then:
as §1, §2

For experiment [3] the target is unchanged. Put plainly: iTopia off-rate assay, 37 C; fit R^2 0.8. The procedure: as §1, §2
For experiment [4] the target is unchanged. Put plainly: iTopia off-rate assay, 37 C; fit R^2 0.77. The procedure: as §1, §2
The target of experiment [5] is T2, MHC class I molecule HLA-B*0702 (iTopia plate-bound monomer) (biotin (bound to streptavidin-coated plate)).
T2 construct: Commercial iTopia system; also called B7
Kind of experiment: iTopia off-rate assay, 37 C; fit R^2 0.68. The procedure: as §1, §2

In experiment [6] the target is T1, MHC class I molecule HLA-A*0201 (iTopia …). Kind of experiment: iTopia off-rate assay, 37 C; fit R^2 0.82. The method, then: as §1, §2
Experiment [7] deals with T3, MHC class I molecule HLA-A*0301 (iTopia plate-bound monomer) (biotin (bound to streptavidin-coated plate)).
T3 construct: also called A3
Put plainly: iTopia off-rate assay, 37 C; fit R^2 0.94. The procedure:
as §1, §2

For experiment [8], the target named is T1, MHC class I molecule HLA-A*0201 (iTopia …). Put plainly: iTopia off-rate assay, 37 C; fit R^2 0.85. The procedure: as §1, §2
For experiment [9] the target is unchanged. Put plainly: iTopia off-rate assay, 37 C; fit R^2 0.08. The method, then:
as §1, §2

For experiment [10] the target is unchanged. Kind of experiment: iTopia off-rate assay, 37 C; fit R^2 0.78. The procedure:
as §1, §2

The target of experiment [11] is T2, MHC class I molecule HLA-B*0702 (iTopia …). Put plainly: iTopia off-rate assay, 37 C; fit R^2 0.69. The method, then:
as §1, §2

Experiment [12] has as its target T1, MHC class I molecule HLA-A*0201 (iTopia …). Put plainly: iTopia off-rate assay, 37 C; fit R^2 0.72. The method, then:
as §1, §2

Experiment [13] shares this target. Put plainly: iTopia off-rate assay, 37 C; fit R^2 0.66. The procedure:
as §1, §2

The target of experiment [14] is T2, MHC class I molecule HLA-B*0702 (iTopia …). Kind of experiment: iTopia off-rate assay, 37 C; fit R^2 0.44. The method, then:
as §1, §2

The target of experiment [15] is T1, MHC class I molecule HLA-A*0201 (iTopia …). Put plainly: iTopia off-rate assay, 37 C; fit R^2 0.75. The method, then: as §1, §2
The target is the same in experiment [16]. Kind of experiment: iTopia off-rate assay, 37 C; fit R^2 0.57. The procedure:
as §1, §2

The target is the same in experiment [17]. Put plainly: iTopia off-rate assay, 37 C; fit R^2 0.64. The method, then: as §1, §2
Experiment [18] has the same target. Put plainly: iTopia off-rate assay, 37 C; fit R^2 0.02. The method, then:
as §1, §2

For experiment [19] the target is unchanged. Kind of experiment: iTopia off-rate assay, 37 C; fit R^2 0.7. The procedure: as §1, §2
In experiment [20] the target is T3, MHC class I molecule HLA-A*0301 (iTopia …). Kind of experiment: iTopia off-rate assay, 37 C; fit R^2 0.95. The method, then: as §1, §2
For experiment [21], the target named is T1, MHC class I molecule HLA-A*0201 (iTopia …). Put plainly: iTopia off-rate assay, 37 C; fit R^2 0.74. The procedure:
as §1, §2

Experiment [22] addresses T3, MHC class I molecule HLA-A*0301 (iTopia …). Kind of experiment: iTopia off-rate assay, 37 C; fit R^2 0.96. The procedure: as §1, §2
For experiment [23], the target named is T1, MHC class I molecule HLA-A*0201 (iTopia …). Kind of experiment: iTopia off-rate assay, 37 C; fit R^2 0.89. The procedure: as §1, §2
Experiment [24] has the same target. Kind of experiment: iTopia off-rate assay, 37 C; fit R^2 0.79. The procedure: as §1, §2
Experiment [25] shares this target. Put plainly: iTopia off-rate assay, 37 C; fit R^2 0.33. The procedure:
as §1, §2

The target is the same in experiment [26]. Put plainly: iTopia off-rate assay, 37 C; fit R^2 0.96. The method, then: as §1, §2
Experiment [27] has as its target T2, MHC class I molecule HLA-B*0702 (iTopia …). Put plainly: iTopia off-rate assay, 37 C; fit R^2 0.95. The procedure:
as §1, §2

In experiment [28] the target is T1, MHC class I molecule HLA-A*0201 (iTopia …). Put plainly: iTopia off-rate assay, 37 C; fit R^2 0.31. The procedure:
as §1, §2

For experiment [29] the target is unchanged. Put plainly: iTopia off-rate assay, 37 C; fit R^2 0.9. The method, then:
as §1, §2

The target of experiment [30] is T2, MHC class I molecule HLA-B*0702 (iTopia …). Kind of experiment: iTopia off-rate assay, 37 C; fit R^2 0.11. The procedure: as §1, §2

In turn, RSFEGMVVA (also called Peptide No 97) [5T4 9-mer peptide 97 RSFEGMVVA] showed a t½ half life in [1] of 0.7 h. In experiment [2], LVLLGWVSS (also called Peptide No 12) [5T4 9-mer peptide 12 LVLLGWVSS] gave a t½ half life of 2.6 h. Take YEINADPRL (also called Peptide No 202) [5T4 9-mer peptide 202 YEINADPRL]: the t½ half life in experiment [3] is 36 min. The same measure, in the same setting: the value for LTHLESLHL [5T4 9-mer peptide 129 LTHLESLHL] was 60 min. For LQGLRRLEL [5T4 9-mer peptide 105 LQGLRRLEL], the t½ half life in experiment [4] worked out at 2.1 h; in [5], 12 min. HFLYLPRDV [5T4 9-mer peptide 111 HFLYLPRDV] showed a t½ half life in [6] of 2.9 h.

Turning to SNHFLYLPR (also called Peptide No 110) [5T4 9-mer peptide 110 SNHFLYLPR], the t½ half life in experiment [7] came out at 54 min; in experiment [8], 1.2 h. Take NQLAVLPAG (also called Peptide No 51) [5T4 9-mer peptide 51 NQLAVLPAG]: the t½ half life in experiment [2] worked out at 3.2 h. In experiment [9], PPSLQTSYV (also called Peptide No 175) [5T4 9-mer peptide 175 PPSLQTSYV] returned a t½ half life of 12.7 h. For ELILNHIVP (also called Peptide No 89) [5T4 9-mer peptide 89 ELILNHIVP], the t½ half life in experiment [10] was found to be 1.1 h. Consider SYVFLGIVL (also called Peptide No 178) [5T4 9-mer peptide 178 SYVFLGIVL], for which the t½ half life in [11] was determined as 0.9 h; in experiment [10] it was 5.1 h. As for LSHNPLADL (also called Peptide No 75) [5T4 9-mer peptide 75 LSHNPLADL], in experiment [12], the t½ half life came to 1.3 h. As to LLGWVSSSS (also called Peptide No 13) [5T4 9-mer peptide 13 LLGWVSSSS], the t½ half life in [1] stood at 1.8 h.

Turning to LYLPRDVLA (also called Peptide No 112) [5T4 9-mer peptide 112 LYLPRDVLA], in experiment [13], the t½ half life was determined as 3.4 h. With VRAGAFEHL (also called Peptide No 67) [5T4 9-mer peptide 67 VRAGAFEHL], the t½ half life in [14] was 24 min.

On to TWLKETEVV [5T4 9-mer peptide 154 TWLKETEVV], for which the t½ half life in [15] came out at 6.4 h. On to LEDNALKVL (also called Peptide No 133) [5T4 9-mer peptide 133 LEDNALKVL], for which, in [16], the t½ half life turned out to be 5.7 h. For the molecule ALKVLHNGT (also called Peptide No 135) [5T4 9-mer peptide 135 ALKVLHNGT], the t½ half life in experiment [17] was determined as 1.5 h. Consider SNASVSAPS (also called Peptide No 83) [5T4 9-mer peptide 83 SNASVSAPS], for which the t½ half life in experiment [18] came out at 15.8 h. The molecule LTNLSSNSD [5T4 9-mer peptide 206 LTNLSSNSD] displayed a t½ half life in experiment [19] of 42 min. As for VSLTYVSFR [5T4 9-mer peptide 124 VSLTYVSFR], the t½ half life in experiment [20] amounted to 12 min. For FLTGNQLAV (also called Peptide No 49) [5T4 9-mer peptide 49 FLTGNQLAV], the t½ half life in experiment [21] was found to be 10.6 h.

In turn, NNPWVCDCH (also called Peptide No 147) [5T4 9-mer peptide 147 NNPWVCDCH] had a t½ half life in experiment [22] of 12 min. As to CVNRNLTEV (also called Peptide No 39) [5T4 9-mer peptide 39 CVNRNLTEV], the values for the t½ half life in experiment [14] and in experiment [23] were 42 min and 1.3 h, respectively. In turn, RHLDLSNNS [5T4 9-mer peptide 119 RHLDLSNNS] displayed a t½ half life in experiment [6] of 1.1 h. In the case of TGNQLAVLP (also called Peptide No 50) [5T4 9-mer peptide 50 TGNQLAVLP], the t½ half life in [9] is 8.7 h. Consider LDLSHNPLA (also called Peptide No 74) [5T4 9-mer peptide 74 LDLSHNPLA], for which, in experiment [24], the t½ half life is 5.4 h. Turning to ELAALNLSG (also called Peptide No 60) [5T4 9-mer peptide 60 ELAALNLSG], the t½ half life in experiment [17] was 1.6 h.

For KVLHNGTLA (also called Peptide No 136) [5T4 9-mer peptide 136 KVLHNGTLA], in [10], the t½ half life is 2.2 h. With MVTWLKETE (also called Peptide No 153) [5T4 9-mer peptide 153 MVTWLKETE], in experiment [15], the t½ half life was determined as 1.2 h.

In [25], SLQTSYVFL [5T4 9-mer peptide 176 SLQTSYVFL] came in with a t½ half life of 12.4 h. For SLVSLTYVS (also called Peptide No 123) [5T4 9-mer peptide 123 SLVSLTYVS], the t½ half life in experiment [26] was 0.9 h.

For LPAYVRNLF (also called Peptide No 45) [5T4 9-mer peptide 45 LPAYVRNLF], in [27], the t½ half life was 1.7 h. Turning to AARTVKCVN (also called Peptide No 36) [5T4 9-mer peptide 36 AARTVKCVN], the t½ half life came out at 1.4 h in experiment [11] and 11.1 h in experiment [28]. In the case of FEGMVVAAL (also called Peptide No 98) [5T4 9-mer peptide 98 FEGMVVAAL], in experiment [26], the t½ half life stood at 1.1 h. Consider NRKGIKKWM [5T4 9-mer peptide 189 NRKGIKKWM], for which, in experiment [28], the t½ half life turned out to be 10 h.

Consider ARLALVLLG (also called Peptide No 10) [5T4 9-mer peptide 10 ARLALVLLG], for which the t½ half life in [19] came to 72 min. LSGSRLDEV (also called Peptide No 63) [5T4 9-mer peptide 63 LSGSRLDEV]: the t½ half life in [29] is 30 min; in experiment [30], 2.9 h.
